Data as given in the Immune Epitope Database (IEDB).

Tests used:
HLA-B*15:03 = assay: IEDB peptide-MHC binding, purified MHC/competitive/radioactivity; filed as Kd, often an IC50 or EC50 that approximates it; ≥ and ≤ were set here for values at or beyond the usual limits of such assays; conditions: source organism: Vaccinia virus WR
HLA-B*07:02 = assay: IEDB peptide-MHC binding, purified MHC/direct/fluorescence; filed as Kd, often an IC50 or EC50 that approximates it; ≥ and ≤ were set here for values at or beyond the usual limits of such assays
HLA-B*51:01 [1] = assay: as above
HLA-A*02:01 [2] = assay: IEDB peptide-MHC binding, purified MHC/competitive/fluorescence; filed as Kd, often an IC50 or EC50 that approximates it; ≥ and ≤ were set here for values at or beyond the usual limits of such assays
HLA-A*02:19 = assay: as above
HLA-A*30:01 = assay: IEDB peptide-MHC binding, purified MHC/competitive/radioactivity; filed as Kd, often an IC50 or EC50 that approximates it; ≥ and ≤ were set here for values at or beyond the usual limits of such assays
HLA-B*57:01 [3] = assay: as above
HLA-B*58:01 [4] = assay: as above
HLA-A*02:03 = assay: IEDB peptide-MHC binding, purified MHC/competitive/fluorescence; filed as Kd, often an IC50 or EC50 that approximates it; ≥ and ≤ were set here for values at or beyond the usual limits of such assays
HLA-A*02:11 = assay: as above
HLA-A*69:01 = assay: as above
HLA-B*15:17 [5] = assay: IEDB peptide-MHC binding, purified MHC/direct/fluorescence; filed as Kd, often an IC50 or EC50 that approximates it; ≥ and ≤ were set here for values at or beyond the usual limits of such assays
HLA-B*57:01 [6] = assay: as above
HLA-B*58:01 [7] = assay: as above
HLA-A*32:01 = assay: IEDB peptide-MHC binding, purified MHC/competitive/radioactivity; filed as Kd, often an IC50 or EC50 that approximates it; ≥ and ≤ were set here for values at or beyond the usual limits of such assays
HLA-B*08:01 [8] = assay: as above
HLA-B*15:01 [9] = assay: as above
HLA-B*35:01 = assay: as above; conditions: source organism: Dengue virus 3 Martinique/1243/1999
HLA-B*53:01 = assay: as above; conditions: source organism: Dengue virus 3 Martinique/1243/1999
HLA-A*01:01 = assay: IEDB peptide-MHC binding, purified MHC/direct/fluorescence; filed as Kd, often an IC50 or EC50 that approximates it; ≥ and ≤ were set here for values at or beyond the usual limits of such assays; conditions: source organism: Mycobacterium tuberculosis C
HLA-A*03:01 = assay: as above; conditions: source organism: Mycobacterium tuberculosis C
HLA-A*11:01 = assay: as above; conditions: source organism: Mycobacterium tuberculosis C
HLA-A*31:01 = assay: as above; conditions: source organism: Mycobacterium tuberculosis C
HLA-B*08:01 [10] = assay: as above; conditions: source organism: Mycobacterium tuberculosis C
HLA-B*15:01 [11] = assay: as above
HLA-B*18:01 = assay: as above; conditions: source organism: Mycobacterium tuberculosis C
HLA-B*40:01 = assay: as above; conditions: source organism: Mycobacterium tuberculosis C
HLA-B*44:02 = assay: as above; conditions: source organism: Mycobacterium tuberculosis C
HLA-B*46:01 [12] = assay: as above; conditions: source organism: Mycobacterium tuberculosis C
HLA-B*48:01 = assay: as above; conditions: source organism: Mycobacterium tuberculosis C
HLA-B*51:01 [13] = assay: IEDB peptide-MHC binding, purified MHC/competitive/fluorescence; filed as Kd, often an IC50 or EC50 that approximates it; ≥ and ≤ were set here for values at or beyond the usual limits of such assays
HLA-A*02:01 [14] = assay: IEDB peptide-MHC binding, purified MHC/direct/fluorescence; filed as Kd, often an IC50 or EC50 that approximates it; ≥ and ≤ were set here for values at or beyond the usual limits of such assays; conditions: source organism: Mus musculus
HLA-A*26:01 = assay: IEDB peptide-MHC binding, purified MHC/competitive/fluorescence; filed as Kd, often an IC50 or EC50 that approximates it; ≥ and ≤ were set here for values at or beyond the usual limits of such assays; conditions: source organism: Mus musculus
HLA-B*15:01 [15] = assay: as above; conditions: source organism: Mus musculus
HLA-B*15:17 [16] = assay: as above; conditions: source organism: Mus musculus
HLA-B*27:03 = assay: as above; conditions: source organism: Mus musculus
HLA-B*39:01 = assay: as above; conditions: source organism: Mus musculus
HLA-B*46:01 [17] = assay: as above; conditions: source organism: Mus musculus
HLA-B*57:01 [18] = assay: as above; conditions: source organism: Mus musculus
[19] = source organism: Mammarenavirus lassaense
[20] = source organism: Bacillus anthracis str. A0488
[21] = source organism: Dengue virus 4 Dominica/814669/1981
[22] = source organism: Human immunodeficiency virus 1
[23] = source organism: Dengue virus 3 Martinique/1243/1999
[24] = source organism: Dengue virus 2 Jamaica/1409/1983
[25] = source organism: Burkholderia pseudomallei 305
[26] = source organism: West Nile virus
[27] = source organism: Bacillus anthracis
[28] = source organism: Vaccinia virus WR
[29] = source organism: Human immunodeficiency virus type 1 BH10
[30] = source organism: Mycobacterium tuberculosis C
[31] = source organism: Giardia lamblia ATCC 50803
[32] = source organism: Burkholderia vietnamiensis G4

In the case of ALVFGRRLF, the Kd (HLA-B*15:03) is reported as 1130 nM.

For AVKAGACML, the Kd (HLA-B*07:02; [19]) was 2470 nM and the Kd (HLA-B*51:01 [1]; [19]) was ≥ 20000 nM.

For DMNLEQWSV, the Kd (HLA-A*02:01 [2]; [20]) was ≥ 20000 nM and the Kd (HLA-A*02:19; [20]) was 11.7 nM.

With FLRLSANLF the Kd (HLA-B*15:03) was 0.119 nM.

GASRRSWPLN gave a Kd (HLA-A*30:01; [21]) of 3720 nM, a Kd (HLA-B*57:01 [3]; [21]) of 12800 nM and a Kd (HLA-B*58:01 [4]; [21]) of 6020 nM.

GGWRFQGSW showed a Kd (HLA-B*57:01 [3]; source organism: Dengue virus 1 Brazil/97-11/1997) of 8.56 nM.

GLADQLIHL was tested, and the Kd (HLA-A*02:01 [2]; [22]) was ≤ 0.1 nM, the Kd (HLA-A*02:03; [22]) was 2 nM and the Kd (HLA-A*02:11; [22]) was 0.3 nM. The Kd (HLA-A*02:19; [22]) was 17.3 nM and the Kd (HLA-A*69:01; [22]) was 11700 nM.

With GMSKEPGVVS the Kd (HLA-B*58:01 [4]; [23]) was 1150 nM.

With GPSLRTTTV the Kd (HLA-B*51:01 [1]; source organism: dengue virus type 1) was ≥ 20000 nM.

For ICSAVPSHW, the Kd (HLA-B*15:17 [5]; source organism: dengue virus type 2) was 416 nM and the Kd (HLA-B*57:01 [3]; [24]) was 2.72 nM.

In the case of IITASILLW, the Kd (HLA-B*57:01 [3]; [24]) is reported as 11.1 nM and the Kd (HLA-B*58:01 [4]; [24]) is reported as 14.4 nM.

Sequence IPDGWWWAI has a Kd (HLA-A*02:01 [2]; [25]) of 93 nM and a Kd (HLA-A*02:11; [25]) of 71.2 nM.

For ISGKSTDMW, the Kd (HLA-B*15:17 [5]; [26]) was 123 nM and the Kd (HLA-B*57:01 [6]; [26]) was 890 nM.

In the case of ISGPIKHPL, the Kd (HLA-B*15:17 [5]; [27]) is reported as 88.3 nM, the Kd (HLA-B*57:01 [6]; [27]) is reported as 280 nM and the Kd (HLA-B*58:01 [7]; [27]) is reported as ≥ 20000 nM.

In the case of KAIKILIGF, the Kd (HLA-B*58:01 [4]; [21]) is reported as 7.66 nM.

With KASLIEVKTC the Kd (HLA-B*57:01 [3]; [23]) was 249 nM and the Kd (HLA-B*58:01 [4]; [23]) was 270 nM.

For KIFFRPTTI, the Kd (HLA-A*30:01; [28]) was 16.8 nM, the Kd (HLA-A*32:01; [28]) was 1.09 nM and the Kd (HLA-B*08:01 [8]; [28]) was 1740 nM. For the same sequence, the Kd (HLA-B*15:01 [9]; [28]) was 93 nM and the Kd (HLA-B*15:03) was 2660 nM.

Work on KKVCFVNKL yielded a Kd (HLA-B*15:03) of 4.51 nM.

KKYNVRYVF was tested, and the Kd (HLA-B*15:03) was 1.01 nM.

With LASVALNMF the Kd (HLA-B*15:03) was 411 nM.

Work on LEVRFGNDV yielded a Kd (HLA-B*15:03) of 1340 nM.

With LKTTFVHPF the Kd (HLA-B*15:03) was 1.32 nM.

With LLQLTVWGI the Kd (HLA-A*02:01 [2]; [29]) was 19 nM, the Kd (HLA-A*02:03; [29]) was 146 nM and the Kd (HLA-A*02:11; [29]) was 4.3 nM. The Kd (HLA-A*02:19; [29]) was ≤ 0.1 nM.

Sequence LMSEETIDF has a Kd (HLA-B*15:03) of 11.6 nM.

LQAKSGSSL gave a Kd (HLA-B*15:01 [9]; [28]) of 4.6 nM and a Kd (HLA-B*15:03) of 0.326 nM.

LRFLEKTSF showed a Kd (HLA-B*15:03) of 2.23 nM.

Sequence MAMTDTTPF has a Kd (HLA-A*32:01; [23]) of 242 nM, a Kd (HLA-B*08:01 [8]; [23]) of 229 nM and a Kd (HLA-B*15:01 [9]; [23]) of 11.9 nM. The Kd (HLA-B*35:01) was 1.81 nM, the Kd (HLA-B*53:01) was 5.45 nM and the Kd (HLA-B*58:01 [4]; [23]) was 10.7 nM.

Work on MSSGNLLFTG yielded a Kd (HLA-B*57:01 [3]; [24]) of 163 nM and a Kd (HLA-B*58:01 [4]; [24]) of 916 nM.

MSSSQDLSF showed a Kd (HLA-B*15:01 [9]; [28]) of 15.9 nM and a Kd (HLA-B*15:03) of 108 nM.

In the case of PTAGILKRW, the Kd (HLA-B*57:01 [3]; [24]) is reported as 200 nM.

Work on PTSRTTWSIH yielded a Kd (HLA-A*30:01; [24]) of 4070 nM, a Kd (HLA-B*57:01 [3]; [24]) of 7680 nM and a Kd (HLA-B*58:01 [4]; [24]) of 2620 nM.

For RFRNHMCLV, the Kd (HLA-A*30:01; [28]) was 31.3 nM, the Kd (HLA-A*32:01; [28]) was ≥ 77800 nM and the Kd (HLA-B*08:01 [8]; [28]) was 864 nM. The Kd (HLA-B*15:01 [9]; [28]) was 4090 nM and the Kd (HLA-B*15:03) was ≥ 42800 nM.

Sequence RSWPLNEAI has a Kd (HLA-A*32:01; [24]) of 87 nM and a Kd (HLA-B*58:01 [4]; [24]) of 7.1 nM.

With TPKIRFWHV the Kd (HLA-A*01:01) was ≥ 20000 nM, the Kd (HLA-A*03:01) was ≥ 20000 nM and the Kd (HLA-A*11:01) was ≥ 20000 nM. For the same sequence, the Kd (HLA-A*31:01) was ≥ 20000 nM, the Kd (HLA-B*07:02; [30]) was ≥ 20000 nM and the Kd (HLA-B*08:01 [10]) was 91.5 nM. The Kd (HLA-B*15:01 [11]; [30]) was ≥ 20000 nM, the Kd (HLA-B*18:01) was ≥ 20000 nM and the Kd (HLA-B*40:01) was ≥ 20000 nM. The Kd (HLA-B*44:02) was ≥ 20000 nM, the Kd (HLA-B*46:01 [12]) was ≥ 20000 nM and the Kd (HLA-B*48:01) was ≥ 20000 nM. For the same sequence, the Kd (HLA-B*57:01 [6]; [30]) was ≥ 20000 nM, the Kd (HLA-B*58:01 [7]; [30]) was ≥ 20000 nM and the Kd (HLA-B*51:01 [13]; [30]) was ≥ 20000 nM.

In the case of VLRQAALSL, the Kd (HLA-B*07:02; [31]) is reported as 13 nM, the Kd (HLA-B*15:01 [11]; [31]) is reported as 44 nM and the Kd (HLA-B*51:01 [1]; [31]) is reported as ≥ 20000 nM.

In the case of VLWKSYPLV, the Kd (HLA-A*02:01 [14]) is reported as 0.3 nM, the Kd (HLA-A*26:01) is reported as ≥ 20000 nM and the Kd (HLA-A*69:01; source organism: Mus musculus) is reported as ≥ 20000 nM. For the same sequence, the Kd (HLA-B*15:01 [15]) was ≥ 20000 nM, the Kd (HLA-B*15:17 [16]) was ≥ 20000 nM and the Kd (HLA-B*27:03) was ≥ 20000 nM. The Kd (HLA-B*39:01) was ≥ 20000 nM, the Kd (HLA-B*46:01 [17]) was ≥ 20000 nM and the Kd (HLA-B*51:01 [13]; source organism: Mus musculus) was ≥ 20000 nM. The Kd (HLA-B*57:01 [18]) was ≥ 20000 nM.

VPGFHGWAT was tested, and the Kd (HLA-B*07:02; source organism: Amur virus) was 115 nM and the Kd (HLA-B*51:01 [1]; source organism: Amur virus) was ≥ 20000 nM.

Work on WFMTWQPNI yielded a Kd (HLA-A*02:01 [2]; [32]) of 540 nM and a Kd (HLA-A*02:19; [32]) of 52.8 nM.
